Assay [1] concerns the target T1, IL-6R (human, UniProt P08887 20-468).
T1 construct: whole, on cells
T1 sequence (looked up): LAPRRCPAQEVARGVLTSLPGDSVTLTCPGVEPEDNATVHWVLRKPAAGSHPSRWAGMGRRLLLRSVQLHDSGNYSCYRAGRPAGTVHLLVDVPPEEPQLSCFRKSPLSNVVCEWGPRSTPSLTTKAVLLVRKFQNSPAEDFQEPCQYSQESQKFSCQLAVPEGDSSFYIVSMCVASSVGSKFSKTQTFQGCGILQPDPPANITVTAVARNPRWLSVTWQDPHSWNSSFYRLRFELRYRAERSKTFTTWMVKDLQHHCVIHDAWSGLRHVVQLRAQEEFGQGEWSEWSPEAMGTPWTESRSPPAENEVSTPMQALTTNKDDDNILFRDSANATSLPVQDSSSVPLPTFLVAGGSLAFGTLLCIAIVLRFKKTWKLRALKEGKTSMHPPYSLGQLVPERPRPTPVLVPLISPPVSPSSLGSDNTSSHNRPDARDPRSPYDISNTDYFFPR
As to the kind of experiment: flow cytometry, anti-IL-6R antibody on KG-1 cells (endogenous IL-6R), PE anti-human secondary.

For assay [2], the target named is T2, hPRLR-mmH (recombinant extracellular domain of hPRLR with a C-terminal myc-myc-hexahistidine tag) (human).
T2 construct: also called truncated form of PRLR
T2 chain: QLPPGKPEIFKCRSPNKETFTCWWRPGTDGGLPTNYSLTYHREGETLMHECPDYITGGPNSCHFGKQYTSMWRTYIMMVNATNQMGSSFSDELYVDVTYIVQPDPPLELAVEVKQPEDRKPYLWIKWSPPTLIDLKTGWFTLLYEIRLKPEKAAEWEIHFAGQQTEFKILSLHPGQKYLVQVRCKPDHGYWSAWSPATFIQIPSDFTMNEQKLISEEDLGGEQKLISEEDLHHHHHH
As to the kind of experiment: H/D exchange; hPRLR-mmH captured on H1H6958N2 agarose beads.

B1: VV6A9-5 (antibody, V domains shown)
VH: EVQLVESGGGLVQPGRSLRLSCAASGFTFDDYALHWVRQAPGKGLEWVSGVSWNGGRIGYADSVKGRFTISRDNAKNSLFLQMNSLRVEDTALYYCAKGRDAFDIWGQGTLVTVSS
VL: DIQMTQSPSSVSASVGDRVTITCRASQGISSWLAWYQQKPGKAPKLLIYAASSLQSGVPSRFSGSGSGTDFTLTISSLQPEDFATYYCQHAYSFPYTFGQGTKLEIK
Take B1: in assay [1], the “Fold Over Background (FACS MFI above isotype control)” value was 7 fold over background.

B2: H1H6958N2 (antibody, V domains shown)
VH: QVQLVESGGGVVQPGRSLRLSCGASGFTFRNYGMQWVRQGPGKGLEWVTLISFDGNDKYYADSVKGRFTISRDNSKNTLFLQMNSLRTEDTAVYYCARGGDFDYWGQGTLVTVSS
VL: DIQMTQSPSSLSASVGDRVTITCRASQDIRKDLGWYQQKPGKAPKRLIYAASSLHSGVPSRFSGSGSGTEFTLTISSLQPEDFATYYCLQHNSYPMYTFGQGTKLEIK
notes: In the H/D exchange experiment the antibody was covalently attached to NHS agarose beads; also called H2M6958N2 (same variable domains, mouse IgG2 Fc); anti-PRLR antibody H1H6958N2
In the case of B2, the binding result in assay [2] is “binds”.

(Values after patent publication US20180185504A1 (Regeneron, published 2018).)
